Test results from the supplement of paper PMC10567573.

B1: PLAGL1 (parent)
chain: EKPPSGTKEKKHQCDHCERCFYTR
B2: RIPK4 (parent)
chain: AAWQGHLPIVKLLAKQPGVSVNAQ

Variants of: B1
Assay: protein stability index of a GFP-peptide fusion (GPS, HEK-293T) (PSI 1-6); higher = more stable
Conditions: c terminus: a fixed tail appended
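Note: lentivirally expressed fusions sorted by FACS into six bins by GFP to DsRed ratio, PSI derived from sequencing read proportions per bin multiplied by bin number.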

Compared with EKPPSGTKEKKHQCDHCERYFYTR, EKPPSGTKEKKHQCDHCERWFYTR is lower in protein stability index: 2.66 for the first, 2.35 for the second.

First: EKPPSGTKEKKHQCDHCERVFYTR
Second: EKPPSGTKEKKHQCDHCERCFITR
The protein stability index of the first is lower: 3.06 for the first, 4.17 for the second.

Compared with EKPPSGTKEKKHQCDHCERCFWTR, EKPPSGTKEKKHQCDHCERCFHTR is higher in protein stability index: 3.18 for the first, 4.13 for the second.

First: EKPPSGTKEKKHQCDHCERCFATR
Second: EKPPSGTKEKKHQCDHCERCFDTR
The protein stability index of the first is lower: 4.25 for the first, 4.58 for the second.

First: EKPPSGTKEKKHQCDHCERCFFTR
Second: EKPPSGTKEKKHQCDHCERCFNTR
The protein stability index of the first is lower: 3.35 for the first, 4.22 for the second.

Going from EKPPSGTKEKKHQCDHCERCFQTR to EKPPSGTKEKKHQCDHCERCFVTR, the protein stability index falls from 4.21 to 3.69.

Compared with EKPPSGTKEKKHQCDHCERCFCTR, EKPPSGTKEKKHQCDHCERCFKTR is lower in protein stability index: 4.84 for the first, 4.45 for the second.

First: EKPPSGTKEKKHQCDHCERCFSTR
Second: EKPPSGTKEKKHQCDHCERCFPTR
The protein stability index of the first is higher: 4.17 for the first, 4.05 for the second.

Going from EKPPSGTKEKKHQCDHCERCFRTR to EKPPSGTKEKKHQCDHCERCFGTR, the protein stability index falls from 4.3 to 4.03.

Compared with EKPPSGTKEKKHQCDHCERCFLTR, EKPPSGTKEKKHQCDHCERCFMTR is higher in protein stability index: 4.35 for the first, 4.37 for the second.

First: EKPPSGTKEKKHQCDHCERCFTTR
Second: EKPPSGTKEKKHQCDHCERCFETR
The protein stability index of the first is lower: 3.89 for the first, 4.67 for the second.

First: EKPPSGTKEKKHQCDHCERCFYTV
Second: EKPPSGTKEKKHQCDHCERCFYTN
The protein stability index of the first is lower: 4.07 for the first, 4.55 for the second.

Compared with EKPPSGTKEKKHQCDHCERCFYTP, EKPPSGTKEKKHQCDHCERCFYTY is lower in protein stability index: 4.9 for the first, 3.96 for the second.

Going from EKPPSGTKEKKHQCDHCERCFYTA to EKPPSGTKEKKHQCDHCERCFYTW, the protein stability index falls from 4.68 to 4.29.

First: EKPPSGTKEKKHQCDHCERCFYTH
Second: EKPPSGTKEKKHQCDHCERCFYTI
The protein stability index of the first is higher: 4.67 for the first, 4.37 for the second.

First: EKPPSGTKEKKHQCDHCERCFYTL
Second: EKPPSGTKEKKHQCDHCERCFYTK
The protein stability index of the first is lower: 4.29 for the first, 4.74 for the second.

First: EKPPSGTKEKKHQCDHCERCFYTC
Second: EKPPSGTKEKKHQCDHCERCFYTQ
The protein stability index of the first is lower: 4.61 for the first, 5.28 for the second.

First: EKPPSGTKEKKHQCDHCERCFYTF
Second: EKPPSGTKEKKHQCDHCERCFYTE
The protein stability index of the first is lower: 4.35 for the first, 4.67 for the second.

Compared with EKPPSGTKEKKHQCDHCERCFYTT, EKPPSGTKEKKHQCDHCERCFYTM is lower in protein stability index: 4.93 for the first, 4.68 for the second.

First: EKPPSGTKEKKHQCDHCERCFYTG
Second: EKPPSGTKEKKHQCDHCERCFYTD
The protein stability index of the first is lower: 4.24 for the first, 5.07 for the second.

First: EKPPSGTKEKKHQCDHCERCFYTS
Second: EKPPSGTKEKKHQCDHCERCFYSR
The protein stability index of the first is higher: 4.33 for the first, 3.79 for the second.

Compared with EKPPSGTKEKKHQCDHCERCFYER, EKPPSGTKEKKHQCDHCERCFYWR is lower in protein stability index: 5.09 for the first, 4.12 for the second.

Compared with EKPPSGTKEKKHQCDHCERCFYCR, EKPPSGTKEKKHQCDHCERCFYAR is lower in protein stability index: 4.64 for the first, 3.89 for the second.

Compared with EKPPSGTKEKKHQCDHCERCFYIR, EKPPSGTKEKKHQCDHCERCFYGR is higher in protein stability index: 4.03 for the first, 4.1 for the second.

First: EKPPSGTKEKKHQCDHCERCFYNR
Second: EKPPSGTKEKKHQCDHCERCFYKR
The protein stability index of the first is lower: 2.86 for the first, 3.99 for the second.

First: EKPPSGTKEKKHQCDHCERCFYMR
Second: EKPPSGTKEKKHQCDHCERCFYPR
The protein stability index of the first is higher: 4.34 for the first, 3.64 for the second.

Going from EKPPSGTKEKKHQCDHCERCFYFR to EKPPSGTKEKKHQCDHCERCFYDR, the protein stability index rises from 3.97 to 4.63.

First: EKPPSGTKEKKHQCDHCERCFYLR
Second: EKPPSGTKEKKHQCDHCERCFYVR
The protein stability index of the first is higher: 4.64 for the first, 4.11 for the second.

First: EKPPSGTKEKKHQCDHCERCFYQR
Second: EKPPSGTKEKKHQCDHCERCFYYR
The protein stability index of the first is higher: 4.01 for the first, 3.83 for the second.

Going from EKPPSGTKEKKHQCDHCERCFYHR to EKPPSGTKEKKHQCDHCERCFYRR, the protein stability index falls from 3.86 to 3.4.

Going from EKPPSGTKEKKHQCDHCERCTYTR to EKPPSGTKEKKHQCDHCERCSYTR, the protein stability index falls from 4.26 to 4.22.

Compared with EKPPSGTKEKKHQCDHCERCKYTR, EKPPSGTKEKKHQCDHCERCDYTR is lower in protein stability index: 4.39 for the first, 4.34 for the second.

First: EKPPSGTKEKKHQCDHCERCQYTR
Second: EKPPSGTKEKKHQCDHCERCHYTR
The protein stability index of the first is higher: 5.02 for the first, 3.51 for the second.

Compared with EKPPSGTKEKKHQCDHCERCEYTR, EKPPSGTKEKKHQCDHCERCMYTR is higher in protein stability index: 4.11 for the first, 4.75 for the second.

First: EKPPSGTKEKKHQCDHCERCNYTR
Second: EKPPSGTKEKKHQCDHCERCLYTR
The protein stability index of the first is higher: 4.33 for the first, 4.08 for the second.

First: EKPPSGTKEKKHQCDHCERCPYTR
Second: EKPPSGTKEKKHQCDHCERCCYTR
The protein stability index of the first is lower: 3.75 for the first, 3.88 for the second.

Compared with EKPPSGTKEKKHQCDHCERCRYTR, EKPPSGTKEKKHQCDHCERCAYTR is lower in protein stability index: 4.15 for the first, 4.06 for the second.

Going from EKPPSGTKEKKHQCDHCERCIYTR to EKPPSGTKEKKHQCDHCERCGYTR, the protein stability index falls from 4.52 to 4.32.

Going from EKPPSGTKEKKHQCDHCERCVYTR to EKPPSGTKEKKHQCDHCERCYYTR, the protein stability index rises from 3.95 to 4.37.

Variants of: B2
Assay: as above
Conditions: c terminus: a fixed tail appended

Going from AAWQGHLKIVKLLAKQPGVSVNAQ to AAWQGHLFIVKLLAKQPGVSVNAQ, the protein stability index rises from 1.07 to 3.42.

Compared with AAWQGHLQIVKLLAKQPGVSVNAQ, AAWQGHLDIVKLLAKQPGVSVNAQ is higher in protein stability index: 1.85 for the first, 2.25 for the second.

Going from AAWQGHLHIVKLLAKQPGVSVNAQ to AAWQGHLAIVKLLAKQPGVSVNAQ, the protein stability index falls from 2.08 to 1.63.

Going from AAWQGHLPIVKLLAKYPGVSVNAQ to AAWQGHLPIVKLLAKSPGVSVNAQ, the protein stability index rises from 1.97 to 2.56.

Compared with AAWQGHLPIVKLLAKAPGVSVNAQ, AAWQGHLPIVKLLAKWPGVSVNAQ is lower in protein stability index: 2.54 for the first, 1.55 for the second.

Going from AAWQGHLPIVKLLAKGPGVSVNAQ to AAWQGHLPIVKLLAKQEGVSVNAQ, the protein stability index rises from 2.93 to 3.58.

Going from AAWQGHLPIVKLLAKQAGVSVNAQ to AAWQGHLPIVKLLAKQPGVKVNAQ, the protein stability index rises from 1.51 to 1.96.

First: AAWQGHLPIVKLLAKQPGVRVNAQ
Second: AAWQGHLPIVKLLAKQPGVFVNAQ
The protein stability index of the first is higher: 2.97 for the first, 1.64 for the second.
